# Test results reported in patent publication US20250195556A1, “COMPOSITIONS, KITS, AND METHODS TO INDUCE ACQUIRED CYTORESISTANCE USING STRESS PROTEIN INDUCERS” (FRED HUTCHINSON CANCER RESEARCH CENTER, priority 2014, published 2025).
# Tests used:
# [1] = test system: HO-1; experiment: Renal cortical HO-1 mRNA and protein after FeS, SnPP or B12; assay type: in vivo, mice; details: for HO-1 protein increases (FIG. 21): within 4 hrs and persists for 18 hrs of IV injection
# Excerpt: (§1) Methods. Male CD-1 mice (25-40 grams) Charles River, Wilmington, MA) were used for all experiments. They were housed under standard vivarium conditions with free food and water access. All experiments were approved by the Fred Hutchinson Cancer Research Center IACUC in accordance with NIH guidelines.
# Effects of FeS, SnPP, and B12 on renal cortical induction of heme oxygenase 1 (HO-1). The following experiments assessed the effects of FeS, SnPP, and B12 on the possible induction of the cytoprotective protein HO-1. To this end, mice were injected with each of these agents, as noted above. Either 4 or 18 hrs later, they were anesthetized and the kidneys were removed through a midline abdominal incision. The renal cortices were dissected on ice and then extracted for protein and mRNA. The samples were then assayed for HO-1 protein by ELISA, and HO-1 mRNA by RT-PCR, factored by GAPDH levels. Five normal mice provided control values.
# [2] = test system: Male CD-1 mice; experiment: Maleate model of AKI (FeS, SnPP, FeS+SnPP); assay type: in vivo; details: 1 mg FeS or 1 μmole SnPP IV alone 18 hrs before maleate
# Excerpt: as §1
# Effects of Fe sucrose (FeS)/tin protoporphyrin (SnPP) on AKI severity. Maleate model of AKI. When injected into rodents, maleate undergoes relatively selective proximal tubule cell uptake via organic anion transporters. Once intracellular accumulation occurs, maleate is a preferred substrate for succinyl-CoA: 3-oxoacid CoA transferase. […] Ample levels of CoA are essential for fatty acid “activation”, allowing for their subsequent metabolism through the Krebs cycle, yielding ATP. In the absence of this process, proximal tubule ATP depletion and cell injury result. Additionally, maleate conjugates the sulfhydryl group of glutathione (GSH), culminating in GSH depletion and potential oxidant tubular stress.
# The following experiment tested whether FeS, SnPP or combined FeS+SnPP can mitigate this form of acute kidney injury (AKI). […] The severity of kidney injury was assessed by determining plasma blood urea nitrogen (BUN) and plasma creatinine (PCr) concentrations.
# [3] = test system: HK-2 cells; experiment: Myoglobin toxicity in HK-2 cells, MTT assay; assay type: cell-based; details: equimolar Na nitrite, 10 mg/ml, 18 hr
# Description: Example 3. […] HK-2 cells (a proximal tubule cell line derived from normal human kidney) were incubated in keratinocyte serum free medium either under normal (control) conditions or in the presence of 10 mg/mL horse skeletal muscle myoglobin or nitrited myoglobin (produced by equimolar Na nitrite addition to 10 mg/ml myoglobin). After 18 hr incubations, the severity of cell injury (% cell death) was assessed by MTT assay. Myoglobin induced 40% cell death (40% decrease in MTT cell uptake), compared to control incubated cells. Nitrite binding to myoglobin reduced cell death by 75%. Thus, nitrite binding is able to reduce myoglobin's cytotoxic effects.
# [4] = Serum creatinine after 2 hr subcutaneous infusion of nitrited myoglobin + SnPP; assay type: in vivo, mice; details: 2 hr subcutaneous infusion of 1, 3, 6, 12, or 25 mg/Kg + 1 μmole SnPP; 18 hrs later
# Description: Mice were subjected to a 2 hr subcutaneous infusion of 1, 3, 6, 12, or 25 mg/Kg of nitrited myoglobin (holding SnPP at a constant dose of 1 μmole). Eighteen hrs later, potential renal injury was assessed by measuring serum creatinine concentrations.
# An obvious concern by applying this prophylactic strategy to patients is potential renal and/or extrarenal toxicities. […] Furthermore, it was previously documented in a cell culture system that nitrite addition markedly reduces myoglobin's cytotoxic effects by 75% (unpublished data, 2014). To assess the potential in vivo margin of safety for N-Mgb+SnPP (see Supplemental FIGs.), the maximal amount of N-Mgb that could be given to mice before nephrotoxicity was observed was tested. Up to 25 times the employed N-Mgb dose (with a constant SnPP dose) could be administered (over 2 hours) without induction of nephrotoxicity (normal BUN and creatinine, 18 hours later).
# [5] = test system: HO-1; experiment: Renal cortical HO-1 mRNA and protein after IV N-Mgb, SnPP or both; assay type: in vivo, mice
# Excerpt: (§2) Cytoresistance-inducing reagents. […] (#Mb0360; Sigma) was used as the primary cytoresistance-inducing agent. However, because myoglobin (Mgb) has an inherent nephrotoxic potential (particularly under conditions of volume depletion and aciduria), two approaches were used to mitigate Mgb's potential adverse effects. First, the Mgb was converted into a nitrited form by the addition of equimolar amount of sodium (Na) nitrite. In this regard, nitrite is an ambidentate molecule that directly binds 1:1 to myoglobin Fe either via its oxygen or nitrogen component. Cotton et al. Advanced inorganic chemistry. Hobocken, NJ: Wiley-Interscience, 1999:1355; Silaghi-Dumitrescu et al. Nitric Oxide 2014; 42 C: 32-9. […] Rassaf et al. Circ Res 2014; 114:1601-10; Totzeck et al. Circulation 2012; 126:325-34 [J Clin Invest 1992; 89:989-95]; Totzeck et al. PLOS One 2014; 22: e105951; Hendgen-Cotta et al. Proc Natl Acad Sci USA 2008; 105:10256-61.
# (§3) Thirty-two mice were divided into 4 equal groups: (1) control mice; (2) mice treated with 1 mg of N-Mgb injection (as a bolus through the tail vein); (3) mice treated with […] of SnPP (via tail vein); and (4) mice treated with combined N-Mgb 1 SnPP. After either 4 hours (n=16) or 18 hours (n=16), the mice were deeply anesthetized with pentobarbital (50 mg/kg), the abdomen was opened through a midline abdominal incision, and the kidneys were removed. To determine potential effects on extrarenal organs, a liver lobe and the heart were also removed. The tissues were iced and then extracted for protein and RNA (RNeasy Plus Mini; Qiagen, Valencia, California) and subjected to enzyme linked immunosorbent assay (ELISA) and reverse transcriptase polymerase chain reaction (RT-PCR) for HO-1, haptoglobin, and IL-10 protein and messenger RNAs (mRNAs). Zager et al. J Am Soc Nephrol 2014; 25:998-1012; Zager et al. Am J Physiol 2012; 303: F139-48. As an assessment of renal function, control mice and the 18 hour after N-Mgb+SnPP-treated mice had blood urea nitrogen (BUN) and plasma creatinine levels measured. Additionally, transverse 10% formalin fixed kidney sections ([…]) were cut and stained with hematoxylin and eosin (H&E) and periodic acid Schiff (PAS) to further assess potential injury.
# [6] = test system: haptoglobin; experiment: Renal cortical haptoglobin mRNA and protein after IV N-Mgb, SnPP or both; assay type: in vivo, mice
# Excerpt: as §2, §3
# [7] = test system: IL-10; experiment: Renal cortical IL-10 mRNA and protein after IV N-Mgb, SnPP or both; assay type: in vivo, mice; details: for Kidney protein: IL-10: control 304
# Excerpt: as §2, §3
# [8] = test system: Male CD-1 mice; experiment: Glycerol model of rhabdomyolysis-induced AKI (Example 4); assay type: in vivo; details: IV pretreatment 18 hours before glycerol; 18 hours after glycerol
# Description: Assessments of cytoresistance. Glycerol model of rhabdomyolysis-induced AKI. Twenty mice were divided into 4 equal groups (controls, mice treated with N-Mgb, SnPP, and mice treated with N-Mgb+SnPP tail vein injections) as described previously. 18 hours later, the mice were briefly anesthetized with isoflurane and immediately injected with 9 mL/kg of 50% glycerol, administered in equally divided doses into each hind limb. At 18 hours after glycerol injection, the mice were anesthetized with pentobarbital, the abdomen was opened, a blood sample for BUN and creatinine assessments was obtained from the vena cava, and the kidneys were resected. The control post-glycerol group and the N-Mgb+SnPP-pretreated glycerol group had kidney sections stained with H&E.
# Calculations and statistics. All values are given as the mean […] standard error of the mean. Statistical comparisons were made by unpaired Student's t test. If multiple comparisons were made, the Bonferroni correction was applied. The severity of renal histologic injury in the glycerol AKI model was graded on a […] (least to most severe tubular necrosis and cast formation observed). The histologic results were compared by Wilcoxon rank sum test. Statistical significance was taken as a P value of <0.05.
# [9] = test system: HO-1; experiment: Liver HO-1 mRNA and protein after IV N-Mgb, SnPP or both; assay type: in vivo, mice; details: for Liver mRNA: HO-1: control 1.1; for Liver protein: HO-1 protein: control 10.2
# Description: as §3
# [10] = test system: haptoglobin; experiment: Liver haptoglobin mRNA and protein after IV N-Mgb, SnPP or both; assay type: in vivo, mice; design: Liver protein: Haptoglobin: unit not given beside the values; details: for Liver mRNA: Haptoglobin: control 0.5; for Liver protein: Haptoglobin: control 115.3
# Description: as §3
# [11] = test system: IL-10; experiment: Liver IL-10 mRNA and protein after IV N-Mgb, SnPP or both; assay type: in vivo, mice; details: for Liver mRNA: IL-10: control 0.06; for Liver protein: IL-10: control 314
# Description: as §3
# [12] = test system: HO-1; experiment: Cardiac HO-1 mRNA and protein after IV N-Mgb, SnPP or both; assay type: in vivo, mice; details: for Cardiac mRNA: HO-1: control 0.07
# Description: as §3
# [13] = test system: haptoglobin; experiment: Cardiac haptoglobin mRNA and protein after IV N-Mgb, SnPP or both; assay type: in vivo, mice; details: for Cardiac mRNA: Haptoglobin: control 0.31; for Cardiac protein: Haptoglobin: control 15.6
# Description: as §3
# [14] = test system: IL-10; experiment: Cardiac IL-10 mRNA and protein after IV N-Mgb, SnPP or both; assay type: in vivo, mice; details: for Cardiac mRNA: IL-10: control 0.36
# Description: as §3
# [15] = read-out: affinity to heme (KD); cited from earlier work
molecule,measurement,setting,value
cyanocobalamin [B12],HO-1 protein increases (FIG. 21),[1],marked HO-1 protein increases
iron sucrose [FeS],"Severity of maleate-induced renal injury (BUN, PCr)",[2],Neither SnPP alone nor FeS alone significantly altered
same,Renal cortical HO-1 protein levels,[1]; 18 hr time point,remained elevated
same,HO-1 protein increases (FIG. 21),[1],marked HO-1 protein increases
"N-Mgb: horse skeletal muscle myoglobin converted into a nitrited form by addition of equimolar sodium nitrite (protein, UniProt P68082 2-154, looked up, nitrited with sodium nitrite) Myoglobin: GLSDGEWQQVLNVWGKVEADIAGHGQEVLIRLFTGHPETLEKFDKFKHLKTEAEMKASEDLKKHGTVVLTALGGILKKKGHHEAELKPLAQSHATKHKIPIKYLEFISDAIIHVLHSKHPGDFGADAQGAMTKALELFRNDIAAKYKELGFQG",Reduction of myoglobin-induced cell death by nitrite binding,[3],75%
same,Serum creatinine concentrations,[4],No significant increase
same,Kidney mRNA: HO-1,"[5]; 4 h after Rx, control 0.61",3.38 ± 0.38
same,Kidney HO-1 protein,"[5]; 4 h after Rx, control 13.3",36.1 ± 2.9
same,Kidney mRNA cortex: HO-1,"[5]; 18 h after Rx, control 0.61",0.58 ± 0.18
same,Kidney protein: HO-1,"[5]; 18 h after Rx, control 13.3",30 ± 6
same,Kidney mRNA: Haptoglobin,"[6]; 4 h after Rx, control 0.20",1.94 ± 0.31
same,Kidney protein: Haptoglobin,"[6]; 4 h after Rx, control 7.9",17.6 ± 1^
same,Kidney mRNA cortex: Haptoglobin,"[6]; 18 h after Rx, control 0.20",0.24 ± 0.04
same,Kidney protein: Haptoglobin,"[6]; 18 h after Rx, control 10.3",183.8 ± 20.4
same,Kidney mRNA: IL-10,"[7]; 4 h after Rx, control 0.56",1.45 ± 0.6
same,Kidney protein: IL-10,[7]; 4 h after Rx,265 ± 54
same,Kidney mRNA cortex: IL-10,"[7]; 18 h after Rx, control 0.56",0.43 ± 0.10
same,Kidney protein: IL-10,[7]; 18 h after Rx,292 ± 54
same,Protection against glycerol-induced AKI (BUN/creatinine levels),[8],modest protection
same,Liver mRNA: HO-1,[9]; 4 h after Rx,1.83 ± 0.33
same,Liver protein: HO-1 protein,[9]; 4 h after Rx,17 ± 2
same,Liver mRNA: HO-1,[9]; 18 h after Rx,0.82 ± 0.07
same,Liver protein: HO-1 protein,[9]; 18 h after Rx,14.9 ± 0.3
same,Liver mRNA: Haptoglobin,[10]; 4 h after Rx,0.98 ± 0.1
same,Liver protein: Haptoglobin,[10]; 4 h after Rx,359.5 ± 39.6
same,Liver mRNA: Haptoglobin,[10]; 18 h after Rx,0.91 ± 0.07
same,Liver protein: Haptoglobin,[10]; 18 h after Rx,358.8 ± 32.8
same,Liver mRNA: IL-10,[11]; 4 h after Rx,0.67 ± 0.46
same,Liver protein: IL-10,[11]; 4 h after Rx,286 ± 32
same,Liver mRNA: IL-10,[11]; 18 h after Rx,0.06 ± 0.02
same,Liver protein: IL-10,[11]; 18 h after Rx,5988 ± 549
same,Cardiac mRNA: HO-1,[12]; 4 h after Rx,0.09 ± 0.01
same,Cardiac protein: HO-1,"[12]; 4 h after Rx, control 1.50",1.64 ± 0.19
same,Cardiac mRNA: HO-1,[12]; 18 h after Rx,0.08 ± 0.01
same,Cardiac mRNA: Haptoglobin,[13]; 4 h after Rx,0.75 ± 0.10
same,Cardiac protein: Haptoglobin,[13]; 4 h after Rx,40.4 ± 8.6
same,Cardiac mRNA: Haptoglobin,[13]; 18 h after Rx,0.53 ± 0.21
same,Cardiac protein: Haptoglobin,[13]; 18 h after Rx,249.6 ± 15.0
same,Cardiac mRNA: IL-10,[14]; 4 h after Rx,0.86 ± 0.11
same,Cardiac protein: IL-10,"[14]; 4 h after Rx, control 8.1",21 ± 12
same,Cardiac mRNA: IL-10,[14]; 18 h after Rx,0.67 ± 0.10
same,Cardiac protein: IL-10,"[14]; 18 h after Rx, control 8",14.5 ± 10^
"Hemopexin: 60 kDa plasma protein that sequesters free heme; protective stress protein (background) (protein, listed as Homo sapiens) MARVLGAPVALGLWSLCWSLAIATPLPPTSAHGNVAEGETKPDPDVTERCSDGWSFDATTLDDNGTMLFFKGEFVWKSHKWDRELISERWKNFPSPVDAAFRQGHNSVFLIKGDKVWVYPPEKKEKGYPKLLQDEFPGIPSPLDAAVECHRGECQAEGVLFFQGDREWFWDLATGTMKERSWPAVGNCSSALRWLGRYYCFQGNQFLRFDPVRGEVPPRYPRDVRDYFMPCPGRGHGHRNGTGHGNSTHHGPEYMRCSPHLVLSALTSDNHGATYAFSGTHYWRLDTSRDGWHSWPIAHQWPQGPSAVDAAFSWEEKLYLVQGTQVYVFLTKGGYTLVSGYPKRLEKEVGTPHGIILDSVDAAFICPGSSRLHIMAGRRLWWLDLKSGAQATWTELPWPHEKVDGALCMEKSLGPNSCSANGPGLYLIHGPNLYCYSDVEKLNAAKALPQPQNVTSLLGCTH",Kd,[15],< 1 pM
